Measurements as given in the supplement of paper PMC9112550, “Optimization of the antimicrobial peptide Bac7 by deep mutational scanning” (BMC Biology, 2022).

tested on: Escherichia coli TOP10; test: shrunken log2 fold change of peptide-encoding DNA abundance (4.5 h post-induction vs induction); higher = less antimicrobial activity (less host growth inhibition); details: time post-induction: 4.5 h; library: site-saturation at positions 5, 18, 19, 20
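Note: peptides expressed intracellularly from a pBAD plasmid library in pooled LB shake-flask culture, induced with 0.3% L-arabinose, DNA abundance read by NGS, three biological replicates, DESeq2 with apeglm shrinkage.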

Sequence | shrunken log2 fold change
RRIRHRPPRLPRPRPRPKDFPRP | -0.0494
RRIRGRPPRLPRPRPRPRWRPRP | 0.973
RRIRGRPPRLPRPRPRPFPFPRP | -0.0622
RRIRWRPPRLPRPRPRPAIDPRP | 0.294
RRIRYRPPRLPRPRPRPAIMPRP | -0.196
RRIRIRPPRLPRPRPRPMPVPRP | -0.244
RRIRYRPPRLPRPRPRPDDHPRP | -0.264
RRIRNRPPRLPRPRPRPKKPPRP | -0.0506
RRIRCRPPRLPRPRPRPVIQPRP | -0.468
RRIRVRPPRLPRPRPRPLCGPRP | 0.0478
RRIRIRPPRLPRPRPRPGPYPRP | -0.376
RRIRPRPPRLPRPRPRPPMEPRP | 0.127
RRIRGRPPRLPRPRPRPTIVPRP | 0.779
RRIRSRPPRLPRPRPRPHEYPRP | 0.00184
RRIRARPPRLPRPRPRPICPPRP | 0.0597
RRIRHRPPRLPRPRPRPTRFPRP | 1.65
RRIRQRPPRLPRPRPRPTWSPRP | 0.136
RRIRLRPPRLPRPRPRPEPMPRP | -0.0888
RRIRFRPPRLPRPRPRPMWQPRP | -0.00366
RRIRHRPPRLPRPRPRPFHRPRP | 0.00911
RRIRFRPPRLPRPRPRPPHYPRP | -0.124
RRIRVRPPRLPRPRPRPKFAPRP | 0.0713

Sequence | shrunken log2 fold change
RRIRIRPPRLPRPRPRPFTVPRP | -0.214
RRIRGRPPRLPRPRPRPIQEPRP | 0.416
RRIRNRPPRLPRPRPRPNSNPRP | -0.744
RRIRHRPPRLPRPRPRPEKMPRP | -0.0669
RRIRDRPPRLPRPRPRPRDVPRP | 0.128
RRIRARPPRLPRPRPRPHKLPRP | 0.214
RRIRTRPPRLPRPRPRPCYKPRP | -0.06
RRIRWRPPRLPRPRPRPQRIPRP | 0.107
RRIRCRPPRLPRPRPRPDTIPRP | -0.738
RRIRGRPPRLPRPRPRPLDAPRP | 0.969
RRIRCRPPRLPRPRPRPVFWPRP | 0.138
RRIRQRPPRLPRPRPRPVKHPRP | -0.629
RRIRRRPPRLPRPRPRPMYYPRP | -0.232
RRIRNRPPRLPRPRPRPCEGPRP | 0.111
RRIRRRPPRLPRPRPRPAVTPRP | -0.111
RRIRTRPPRLPRPRPRPTCAPRP | 0.175
RRIRCRPPRLPRPRPRPFENPRP | -0.0274
RRIRWRPPRLPRPRPRPEHTPRP | 0.489
RRIRERPPRLPRPRPRPHNWPRP | -0.363
RRIRRRPPRLPRPRPRPSEFPRP | 0.00596
RRIRLRPPRLPRPRPRPIMMPRP | -0.0614
RRIRDRPPRLPRPRPRPFLHPRP | 0.204

Sequence | shrunken log2 fold change
RRIRRRPPRLPRPRPRPAATPRP | 0.335
RRIRRRPPRLPRPRPRPANAPRP | 0.055
RRIRNRPPRLPRPRPRPDHWPRP | 0.0703
RRIRWRPPRLPRPRPRPYTMPRP | -0.335
RRIRWRPPRLPRPRPRPVRRPRP | 0.365
RRIRHRPPRLPRPRPRPTKTPRP | -0.194
RRIRARPPRLPRPRPRPDKMPRP | 0.104
RRIRSRPPRLPRPRPRPPNQPRP | 0.134
RRIRVRPPRLPRPRPRPEHSPRP | 0.115
RRIRSRPPRLPRPRPRPLVHPRP | -0.253
RRIRVRPPRLPRPRPRPSRSPRP | 0.0405
RRIRIRPPRLPRPRPRPGPMPRP | 0.0608
RRIRARPPRLPRPRPRPEAIPRP | 0.839
RRIRTRPPRLPRPRPRPYHNPRP | -0.941
RRIRTRPPRLPRPRPRPGWSPRP | 0.354
RRIRRRPPRLPRPRPRPCQIPRP | -0.211
RRIRGRPPRLPRPRPRPQDNPRP | 0.0555
RRIRKRPPRLPRPRPRPGEIPRP | 0.0945
RRIRSRPPRLPRPRPRPCNKPRP | -0.225
RRIRARPPRLPRPRPRPIWHPRP | 0.331
RRIRPRPPRLPRPRPRPCEKPRP | 0.0377
RRIRERPPRLPRPRPRPCLDPRP | -0.0689

Sequence | shrunken log2 fold change
RRIRQRPPRLPRPRPRPVYFPRP | -0.446
RRIRYRPPRLPRPRPRPFDMPRP | -0.195
RRIRIRPPRLPRPRPRPGMHPRP | 0.00513
RRIRQRPPRLPRPRPRPWMGPRP | 0.063
RRIRSRPPRLPRPRPRPGFAPRP | 0.502
RRIRQRPPRLPRPRPRPWETPRP | -0.00136
RRIRSRPPRLPRPRPRPECLPRP | 0.18
RRIRGRPPRLPRPRPRPLYSPRP | 0.225
RRIRARPPRLPRPRPRPTHAPRP | 0.528
RRIRQRPPRLPRPRPRPFYEPRP | -0.413
RRIRHRPPRLPRPRPRPCAFPRP | -0.176
RRIRNRPPRLPRPRPRPAIVPRP | -0.0426
RRIRCRPPRLPRPRPRPHEKPRP | -0.277
RRIRERPPRLPRPRPRPSNEPRP | -0.17
RRIRERPPRLPRPRPRPLHKPRP | -0.0653
RRIRVRPPRLPRPRPRPGRYPRP | 0.303
RRIRHRPPRLPRPRPRPKEKPRP | 0.0444
RRIRYRPPRLPRPRPRPLQSPRP | 0.00494
RRIRGRPPRLPRPRPRPVWQPRP | 0.174
RRIRIRPPRLPRPRPRPHKSPRP | -1.18
RRIRLRPPRLPRPRPRPIKQPRP | -0.00202
RRIRDRPPRLPRPRPRPMMWPRP | 0.156

Sequence | shrunken log2 fold change
RRIRLRPPRLPRPRPRPDKEPRP | 0.0143
RRIRSRPPRLPRPRPRPIMEPRP | -0.182
RRIRERPPRLPRPRPRPIRMPRP | -0.00149
RRIRKRPPRLPRPRPRPPAWPRP | 0.602
RRIRTRPPRLPRPRPRPYWHPRP | -0.4
RRIRKRPPRLPRPRPRPQWNPRP | -0.105
RRIRTRPPRLPRPRPRPKVRPRP | 0.0294
RRIRSRPPRLPRPRPRPKEQPRP | -0.0517
RRIRYRPPRLPRPRPRPDIWPRP | -0.00585
RRIRNRPPRLPRPRPRPGIQPRP | 0.00115
RRIRGRPPRLPRPRPRPMKHPRP | 0.0417
RRIRRRPPRLPRPRPRPAWYPRP | 0.176
RRIRKRPPRLPRPRPRPGHFPRP | 0.0417
RRIRKRPPRLPRPRPRPHSIPRP | 0.124
RRIRNRPPRLPRPRPRPYQRPRP | -0.0199
RRIRSRPPRLPRPRPRPTYAPRP | 0.0244
RRIRQRPPRLPRPRPRPPFYPRP | -0.0349
RRIRWRPPRLPRPRPRPNKNPRP | -0.0787
RRIRFRPPRLPRPRPRPMNPPRP | -0.0531
RRIRRRPPRLPRPRPRPSGHPRP | 0.161
RRIRYRPPRLPRPRPRPCCAPRP | -0.437
